In this assay the target is p185 erbB-2 on SK-BR-3 human breast carcinoma cells (human, UniProt P04626 23-1255).

In general, EC50 refers to the midpoint of the concentration-response curve. The low end stands for an effect from little substance, the high end for a need for much substance.

B1: scFv(FRP5)-DETA-DGAL4 protein (scFv)
chain: DYKDDDDKLHHHHHHKLQVQLQQSGPELKKPGETVKISCKASGYPFTNYGMNWVKQAPGQGLKWMGWINTSTGESTFADDFKGRFDFSLETSANTAYLQINNLKSEDMATYFCARWEVYHGYVPYWGQGTTVTVSSGGGGSGGGGSGGGGSDIQLTQSHKFLSTSVGDRVSITCKASQDVYNAVAWYQQKPGQSPKLLIYSASSRYTGVPSRFTGSGSGPDFTFTISSVQAEDLAVYFCQQHFRTPFTFGSGTKLEIKALEGGSLAALTAHQACHLPLETFTRHRQPRGWEQLEQCGYPVQRLVALYLAARLSWNQVDQVIRNALASPGSGGDLGEAIREQPEQARLALTLAAAESERFVRQGTGNDEAGAANADEKLLSSIEQACDICRLKKLKCSKEKPKCAKCLKNNWECRYSPKTKRSPLTRAHLTEVESRLERLEQLFLLIFPREDLDMILKMDSLQDIKALLTGLFVQDNVNKDAVTDRLASVETDMPLTLRQHRISATSSSEESSNKGQRQLTVSSSDYKDEL
Consider B1, for which the EC50 was 20 nM.

(Values after US6498233 (dated 1996).)
